Measurements reported in patent publication US12227551B2, “Membrane bound IL12 compositions and methods for tunable regulation” (Obsidian Therapeutics, Inc., priority 2018, dated 2025).

Columns and labels:
CD19+ Nalm6 tumors [1] = assay: Nalm6-Luc tumor burden by BLI, mean total flux, NSG mice given CAR-T cells (Example 9; Table 28); type: in vivo
Method: (§1) The study was designed to determine if membrane bound IL12 (mbIL12) expressed on CAR-T cells via a CD8 TM domain and CD8 Hinge Region promotes CAR T cell expansion in cis, promotes non-CAR-T cell expansion in trans, and/or increases in vivo CAR T cell efficacy against CD19+ Nalm6 tumors. To test in vivo anti-tumor activity, experiments were performed in NSG mice. Nalm6 cells were transfected with Redifect Red-Fluc (Perkin Elmer) under selection using Puromycin for ˜2 months to generate a line that stably expresses the luciferase reporter; thereafter named Nalm6-Luc. Ten days before tumor implantation, Nalm6-Luc cells were thawed and cultured in puromycin-containing media. On day 0, cells were counted, resuspended in PBS and injected into NSG mice via tail vein. On day 6, mice were imaged for bioluminescent intensity (BLI) and sorted into groups based on their tumor size ensuring that all groups had the same sized tumors. Human T cells were transduced with one of the following constructs as shown in the study design in Table 27:
(§2) Next, holding total CAR+ T cell dose constant at either 300,000 or 1 million cells per animal, transduced T cells were intravenously infused into mice on day 7. Tumors were monitored in mice using BLI and the mean of the Total Flux (photons/second) was calculated for each group as an indicator of tumor burden (Table 28). In order to track the trans effect of IL12 expressing CART cells on T cells that lack expression of IL12, 5 million GFP+ T cells (negative for IL12) were co-infused with the IL12-expressing CAR+ T cells, and peripheral blood draws taken over time to evaluate the effect of IL12 on phenotypic changes in GFP+ T cells by flow cytometry analysis.

[2] = test system: CAR+ T cells and GFP+ T cells; assay: CAR-T and GFP+ T cell expansion in peripheral blood by flow cytometry (Example 9; Table 32); type: in vivo, NSG mice; conditions: cell numbers in 50 uL blood
Method: as §2
Thus, anti-tumor efficacy (Table 28) appears to correlate with CAR-T cell expansion.

CD19+ Nalm6 tumors [3] = assay: Nalm6-Luc tumor burden by BLI, mean total flux, NSG mice, B7.1 TM mbIL12 constructs (Example 10; Table 34); type: in vivo
Method: as §1, with “To” for “The study was designed to determine if membrane bound IL12 (mbIL12) expressed on CAR-T cells via a CD8 TM domain and CD8 Hinge Region promotes CAR T cell expansion in cis, promotes non-CAR-T cell expansion in trans, and/or increases in vivo CAR T cell efficacy against CD19+ Nalm6 tumors. To”, “ensure” for “ensuring”, “33:” for “27:”
as §2, with “at” for “at either 300,000 or”, “34).” for “28).”, “on” for “on T cells”, “10” for “5”

[4] = day 27 post tumor implant, day 20 post T cell transfer
[5] = day 41 post tumor implant, day 34 post T cell transfer

B1: OT-001356: CD19 CAR; stop; IRES; secreted IL12 (p40 23-328; (G4S)3; p35 57-253); nucleic acid SEQ ID NO: 482 (protein)
chain: IWELKKDVYVVELDWYPDAPGEMVVLTCDTPEEDGITWTLDQSSEVLGSGKTLTIQVKEFGDAGQYTCHKGGEVLSHSLLLLHKKEDGIWSTDILKDQKEPKNKTFLRCEAKNYSGRFTCWWLTTISTDLTFSVKSSRGSSDPQGVTCGAATLSAERVRGDNKEYEYSVECQEDSACPAAEESLPIEVMVDAVHKLKYENYTSSFFIRDIIKPDPPKNLQLKPLKNSRQVEVSWEYPDTWSTPHSYFSLTFCVQVQGKSKREKKDRVFTDKTSATVICRKNASISVRAQDRYYSSSWSEWASVPCSGGGGSGGGGSGGGGSRNLPVATPDPGMFPCLHHSQNLLRAVSNMLQKARQTLEFYPCTSEEIDHEDITKDKTSTVEACLPLELTKNESCLNSRETSFITNGSCLASRKTSFMMALCLSSIYEDLKMYQVEFKTMNAKLLMDPKRQIFLDQNMLAVIDELMQALNFNSETVPQKSSLEEPDFYKTKIKLCILLHAFRIRAVTIDRVMSYLNASGS
With B1 the “Mean Total Flux (Nalm-6 Tumor Burdon)” value (CD19+ Nalm6 tumors [1]; day 6 post tumor implant, day −1 post T cell transfer (before infusion), cell dose not given) was 1069500 photons/second, the “Mean Total Flux (Nalm-6 Tumor Burdon)” value (CD19+ Nalm6 tumors [1]; day 13 post tumor implant, day 6 post T cell transfer) was 17363750 photons/second and the “Mean Total Flux (Nalm-6 Tumor Burdon)” value (CD19+ Nalm6 tumors [1]; day 20 post tumor implant, day 13 post T cell transfer) was 555500 photons/second. For the same molecule, the “Mean Total Flux (Nalm-6 Tumor Burdon)” value (CD19+ Nalm6 tumors [1]; [4]) was 769125 photons/second, the “Mean Total Flux (Nalm-6 Tumor Burdon)” value (CD19+ Nalm6 tumors [1]; day 34 post tumor implant, day 27 post T cell transfer) was 743125 photons/second and the “Mean Total Flux (Nalm-6 Tumor Burdon)” value (CD19+ Nalm6 tumors [1]; [5]) was 716750 photons/second. For the same molecule, the “Cis Effect: Numbers of CAR+ Cells on Day 14” value ([2]; cell dose 0.3 ×10e6) was 1402.64, the “Trans Effect: Numbers of GFP+ Cells on Day 14” value ([2]; cell dose 0.3 ×10e6) was 400.00 and the “Cis Effect: Numbers of CAR+ Cells on Day 14” value ([2]; cell dose 1 ×10e6) was 3789.89. The “Trans Effect: Numbers of GFP+ Cells on Day 14” value ([2]; cell dose 1 ×10e6) was 332.75, the “Mean Total Flux (Nalm-6 Tumor Burdon)” value (CD19+ Nalm6 tumors [3]; day 6 post tumor implant, day −1 post T cell transfer (before infusion), 1 million CAR+ T cells) was 2667500 photons/second and the “Mean Total Flux (Nalm-6 Tumor Burdon)” value (CD19+ Nalm6 tumors [3]; day 15 post tumor implant, day 8 post T cell transfer) was 72220000 photons/second. The “Mean Total Flux (Nalm-6 Tumor Burdon)” value (CD19+ Nalm6 tumors [3]; day 19 post tumor implant, day 12 post T cell transfer) was 3141750 photons/second, the “Mean Total Flux (Nalm-6 Tumor Burdon)” value (CD19+ Nalm6 tumors [3]; day 22 post tumor implant, day 15 post T cell transfer) was 1001125 photons/second and the “Mean Total Flux (Nalm-6 Tumor Burdon)” value (CD19+ Nalm6 tumors [3]; [4]) was 991750 photons/second. For the same molecule, the “Mean Total Flux (Nalm-6 Tumor Burdon)” value (CD19+ Nalm6 tumors [3]; day 30 post tumor implant, day 23 post T cell transfer) was 797000 photons/second, the “Mean Total Flux (Nalm-6 Tumor Burdon)” value (CD19+ Nalm6 tumors [3]; day 33 post tumor implant, day 26 post T cell transfer) was 887000 photons/second and the “Mean Total Flux (Nalm-6 Tumor Burdon)” value (CD19+ Nalm6 tumors [3]; day 36 post tumor implant, day 29 post T cell transfer) was 627875 photons/second. For the same molecule, the “Mean Total Flux (Nalm-6 Tumor Burdon)” value (CD19+ Nalm6 tumors [3]; [5]) was 697500 photons/second.
